Patent publication US8445655, “Functional nucleic acid ligands to fluorescent proteins” (Cornell Research Foundation, Inc.)

B1: AP4 (ssRNA)
RNA: GGGAGCACGAUUCCAUGAUUCUCGUAUCAAGGAAGGGUUAUGAGAUUUAGGUAAACGUGGCGAAUUGGGUGGGGAAAGUCCUAAAAAGAGGGCCACCACAGAGGCUUGUAAUCGAUGUUACUAUAGAGGGACACGACUACAAGCUUCUGGACUCGGU
B2: AP2 (ssRNA)
RNA: GGGAGCACGAUUCCAUGCAAUUGUCGAGUUGUUAGCAGCAGCUUGCAUAUUGAGUCGUGGCGAAUUGGGUGGGGAAAGUCCUAAAAAGAGGGCCACCACAGAGGUUUGUACCCAUACUACAAGCUUCUGGACUCGGU
B3: AP6 (ssRNA)
RNA: GGGAGCACGAUUCCAUUGGAUGCCACCGCGACUACGGUUAGUAGGCAUUCUGAGUCGUGGCGAAUUGGGUGGGGAAAGUCCUGAAAAGAGGGCCACCACAGAGGCUCAAACUGGACGUUAAUGACGUUUCGGUUCAGUACAAGCUUCUGGACUCGGU

biological target: GFP (wild-type green fluorescent protein) (Aequorea victoria, UniProt P42212 P42212:1-238); assay: filter; higher affinity than G16; details: tags: His-tag (His-tagged GFP used on Ni beads in selection)

Binding result, binds:
B1
B2
B3
